This is an account of results in patent US20150093764A1 (BECTON DICKINSON, published 2015).

Substitutions are numbered along the chain they refer to. Names may count otherwise.

The target of experiment [1] is T1, human CD88 (complement component 5a receptor 1) (human, UniProt P21730 1-350).
T1 construct: Native antigen on granulocytes of lysed human whole blood / PBMC preparations, read by flow cytometry; also called C5AR1; native CD88 antigen expressed on granulocytes
T1 chain: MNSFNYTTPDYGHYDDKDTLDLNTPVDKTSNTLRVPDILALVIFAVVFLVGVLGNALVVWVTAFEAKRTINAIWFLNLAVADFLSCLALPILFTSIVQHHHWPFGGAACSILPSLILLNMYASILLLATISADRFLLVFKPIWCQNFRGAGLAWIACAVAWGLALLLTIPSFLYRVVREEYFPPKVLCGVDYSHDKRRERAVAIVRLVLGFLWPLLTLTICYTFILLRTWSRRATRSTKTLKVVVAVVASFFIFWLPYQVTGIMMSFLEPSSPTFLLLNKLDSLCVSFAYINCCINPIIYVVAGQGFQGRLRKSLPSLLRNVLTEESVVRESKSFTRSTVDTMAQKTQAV
Kind of experiment: flow cytometry on granulocytes, PE goat anti-rabbit secondary. The method, then:
(§1) For cell surface staining with the parental rabbit anti-human CD88 mAb, PBMCs in PBS containing 2% BSA were mixed with parental rabbit anti-human CD88 mAbs at concentrations of 1 μg, 0.5 μg, 0.25 μg, 0.125 μg and 0.0625 μg as shown in FIG. 3 (A-E) and incubated for 1 hr at 4° C. The cells were washed with PBS containing 2% BSA and incubated at 4° C. for 30 minutes with BD Pharmingen PE Goat Anti-rabbit IgG (Cat No 558146). The cells were washed with PBS containing 2% BSA, and analyzed with a BD FACS Canto II Flow cytometer. Non-specific binding of the secondary anti-rabbit PE-conjugated antibody on the cells alone (primary antibody absent; FIG. 3F) and background autofluorescence by unstained cells (secondary antibody absent; FIG. 3G) served as negative controls for the assay. The % positive signal was detected.

Experiment [2] addresses T1, human CD88 (complement component 5a …). Kind of experiment: flow cytometry on granulocytes, PE goat anti-rabbit IgG secondary. The procedure:
as §1
The binding of the variant rabbit anti-human CD88 mAbs was assayed as for the parental mAb, and the results for four variants are shown in FIGS. 4-7. […] Panels F and G show fluorescence of the negative controls as described for the parental mAb. […] Panels F and G show fluorescence of the negative controls as described for the parental mAb. […] Panels F and G show fluorescence of the negative controls as described for the parental mAb. FIG. 7 (A-E) show the binding at concentrations of 1 ug, 0.5 ug, 0.25 ug, 0.125 ug and 0.0625 ug of a fourth variant mAb having a substitution R116A in the heavy chain and a substitution Y51F in the light chain CDRs. Panels F and G show fluorescence of the negative controls as described for the parental mAb.

B1: parental rabbit anti-human CD88 mAb (hybridoma cell line CD88 clone C85-4124) (antibody, V domains shown)
VH: QSVKESEGGLFKPADTLTLTCTVSGFSVNNKGVMWVRQAPGNGLEWIGSIGISGRVTYATWAKSRSTITRDTNLNTVTLKVTSLTVADTATYFCRIGSNIWGPGTLVTVSS
VL: ELVLTQTPSSVSAAVGGTVTINCQSSQSVYNNNLLAWYQQKPGQPPKLLIYQASTLDSGVPSRFKGSGTGTHFTLTISDLECDDAATYYCQGGYNGNGIAAFGGGTEVVVDG
notes: Rabbit monoclonal antibody
In the case of B1, the binding result in experiment [1] is on record as “binds”.

B2: Variant 4 rabbit anti-human CD88 mAb, R116A in heavy chain and Y51F in light chain (antibody, V domains shown)
VH: B1 VH with R95A
VL: B1 VL with Y30F
notes: Recombinant double mutant, made in 293F cells; also called fourth variant
For the molecule B2, in experiment [2], the binding result is “no binding”.

B3: Variant 1 rabbit anti-human CD88 mAb, R116A in heavy chain CDR-H3 (antibody, V domains shown)
VH: B1 VH with R95A
VL: B1 VL
notes: No signal peptide limits are stated; also called first variant
B3: the binding result in experiment [2] is reported as “no binding”.

B4: Variant 3 rabbit anti-human CD88 mAb, R116A in heavy chain and Y51A in light chain (antibody, V domains shown)
VH: B1 VH with R95A
VL: B1 VL with Y30A
notes: Recombinant double mutant, made in 293F cells; also called third variant
Take B4: the binding result in experiment [2] is “no binding”.

B5: Variant 2 rabbit anti-human CD88 mAb, Y51A in light chain CDR-L1 (antibody, V domains shown)
VH: B1 VH
VL: B1 VL with Y30A
notes: Recombinant, made in 293F cells; also called second variant
B5: the binding result in experiment [2] is reported as “no binding”.
